In the supplement of paper PMC5998384:

How the values were obtained:
HeLa Kyoto [1] = assay: melting temperature (median over replicates), in situ; higher = more thermally stable
HeLa Kyoto [2] = assay: solubility in G1/S (NP-40 vs SDS abundance) (log2 ratio); higher = more soluble; conditions: cell cycle stage: G1/S
HeLa Kyoto [3] = assay: solubility change mitosis vs G1/S (difference of NP-40 vs SDS log2 ratios) (log2 ratio difference); higher = more soluble in mitosis
HeLa Kyoto [4] = assay: thermal stability score vs G1/S (z-score of summed log2 fold changes over temperatures); higher = more thermally stable than in G1/S
[5] = cell cycle stage: early G1 (4.5 h after nocodazole release)
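For melting temperature (median over replicates), in situ in this document: HeLa Kyoto cells synchronized by double thymidine or nocodazole block, proteins quantified by TMT10plex mass spectrometry, three independent biological replicates.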
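For solubility change mitosis vs G1/S (difference of NP-40 vs SDS log2 ratios) in this document: synchronized HeLa Kyoto cells (double thymidine block for G1/S, nocodazole release for mitosis), protein amounts in NP-40 versus SDS lysates quantified by mass spectrometry, three biological replicates.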
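For solubility in G1/S (NP-40 vs SDS abundance) in this document: HeLa Kyoto cells arrested at G1/S by double thymidine block, proteins quantified by TMT10plex mass spectrometry in mild NP-40 versus SDS extracts, three biological replicates.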
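For thermal stability score vs G1/S (z-score of summed log2 fold changes over temperatures) in this document: synchronized HeLa Kyoto cells, proteins quantified by TMT10plex mass spectrometry, three biological replicates, mitosis taken 0.5 h after nocodazole release, G1/S directly after double thymidine block.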

HERC1, sequence (chain, as listed by the source): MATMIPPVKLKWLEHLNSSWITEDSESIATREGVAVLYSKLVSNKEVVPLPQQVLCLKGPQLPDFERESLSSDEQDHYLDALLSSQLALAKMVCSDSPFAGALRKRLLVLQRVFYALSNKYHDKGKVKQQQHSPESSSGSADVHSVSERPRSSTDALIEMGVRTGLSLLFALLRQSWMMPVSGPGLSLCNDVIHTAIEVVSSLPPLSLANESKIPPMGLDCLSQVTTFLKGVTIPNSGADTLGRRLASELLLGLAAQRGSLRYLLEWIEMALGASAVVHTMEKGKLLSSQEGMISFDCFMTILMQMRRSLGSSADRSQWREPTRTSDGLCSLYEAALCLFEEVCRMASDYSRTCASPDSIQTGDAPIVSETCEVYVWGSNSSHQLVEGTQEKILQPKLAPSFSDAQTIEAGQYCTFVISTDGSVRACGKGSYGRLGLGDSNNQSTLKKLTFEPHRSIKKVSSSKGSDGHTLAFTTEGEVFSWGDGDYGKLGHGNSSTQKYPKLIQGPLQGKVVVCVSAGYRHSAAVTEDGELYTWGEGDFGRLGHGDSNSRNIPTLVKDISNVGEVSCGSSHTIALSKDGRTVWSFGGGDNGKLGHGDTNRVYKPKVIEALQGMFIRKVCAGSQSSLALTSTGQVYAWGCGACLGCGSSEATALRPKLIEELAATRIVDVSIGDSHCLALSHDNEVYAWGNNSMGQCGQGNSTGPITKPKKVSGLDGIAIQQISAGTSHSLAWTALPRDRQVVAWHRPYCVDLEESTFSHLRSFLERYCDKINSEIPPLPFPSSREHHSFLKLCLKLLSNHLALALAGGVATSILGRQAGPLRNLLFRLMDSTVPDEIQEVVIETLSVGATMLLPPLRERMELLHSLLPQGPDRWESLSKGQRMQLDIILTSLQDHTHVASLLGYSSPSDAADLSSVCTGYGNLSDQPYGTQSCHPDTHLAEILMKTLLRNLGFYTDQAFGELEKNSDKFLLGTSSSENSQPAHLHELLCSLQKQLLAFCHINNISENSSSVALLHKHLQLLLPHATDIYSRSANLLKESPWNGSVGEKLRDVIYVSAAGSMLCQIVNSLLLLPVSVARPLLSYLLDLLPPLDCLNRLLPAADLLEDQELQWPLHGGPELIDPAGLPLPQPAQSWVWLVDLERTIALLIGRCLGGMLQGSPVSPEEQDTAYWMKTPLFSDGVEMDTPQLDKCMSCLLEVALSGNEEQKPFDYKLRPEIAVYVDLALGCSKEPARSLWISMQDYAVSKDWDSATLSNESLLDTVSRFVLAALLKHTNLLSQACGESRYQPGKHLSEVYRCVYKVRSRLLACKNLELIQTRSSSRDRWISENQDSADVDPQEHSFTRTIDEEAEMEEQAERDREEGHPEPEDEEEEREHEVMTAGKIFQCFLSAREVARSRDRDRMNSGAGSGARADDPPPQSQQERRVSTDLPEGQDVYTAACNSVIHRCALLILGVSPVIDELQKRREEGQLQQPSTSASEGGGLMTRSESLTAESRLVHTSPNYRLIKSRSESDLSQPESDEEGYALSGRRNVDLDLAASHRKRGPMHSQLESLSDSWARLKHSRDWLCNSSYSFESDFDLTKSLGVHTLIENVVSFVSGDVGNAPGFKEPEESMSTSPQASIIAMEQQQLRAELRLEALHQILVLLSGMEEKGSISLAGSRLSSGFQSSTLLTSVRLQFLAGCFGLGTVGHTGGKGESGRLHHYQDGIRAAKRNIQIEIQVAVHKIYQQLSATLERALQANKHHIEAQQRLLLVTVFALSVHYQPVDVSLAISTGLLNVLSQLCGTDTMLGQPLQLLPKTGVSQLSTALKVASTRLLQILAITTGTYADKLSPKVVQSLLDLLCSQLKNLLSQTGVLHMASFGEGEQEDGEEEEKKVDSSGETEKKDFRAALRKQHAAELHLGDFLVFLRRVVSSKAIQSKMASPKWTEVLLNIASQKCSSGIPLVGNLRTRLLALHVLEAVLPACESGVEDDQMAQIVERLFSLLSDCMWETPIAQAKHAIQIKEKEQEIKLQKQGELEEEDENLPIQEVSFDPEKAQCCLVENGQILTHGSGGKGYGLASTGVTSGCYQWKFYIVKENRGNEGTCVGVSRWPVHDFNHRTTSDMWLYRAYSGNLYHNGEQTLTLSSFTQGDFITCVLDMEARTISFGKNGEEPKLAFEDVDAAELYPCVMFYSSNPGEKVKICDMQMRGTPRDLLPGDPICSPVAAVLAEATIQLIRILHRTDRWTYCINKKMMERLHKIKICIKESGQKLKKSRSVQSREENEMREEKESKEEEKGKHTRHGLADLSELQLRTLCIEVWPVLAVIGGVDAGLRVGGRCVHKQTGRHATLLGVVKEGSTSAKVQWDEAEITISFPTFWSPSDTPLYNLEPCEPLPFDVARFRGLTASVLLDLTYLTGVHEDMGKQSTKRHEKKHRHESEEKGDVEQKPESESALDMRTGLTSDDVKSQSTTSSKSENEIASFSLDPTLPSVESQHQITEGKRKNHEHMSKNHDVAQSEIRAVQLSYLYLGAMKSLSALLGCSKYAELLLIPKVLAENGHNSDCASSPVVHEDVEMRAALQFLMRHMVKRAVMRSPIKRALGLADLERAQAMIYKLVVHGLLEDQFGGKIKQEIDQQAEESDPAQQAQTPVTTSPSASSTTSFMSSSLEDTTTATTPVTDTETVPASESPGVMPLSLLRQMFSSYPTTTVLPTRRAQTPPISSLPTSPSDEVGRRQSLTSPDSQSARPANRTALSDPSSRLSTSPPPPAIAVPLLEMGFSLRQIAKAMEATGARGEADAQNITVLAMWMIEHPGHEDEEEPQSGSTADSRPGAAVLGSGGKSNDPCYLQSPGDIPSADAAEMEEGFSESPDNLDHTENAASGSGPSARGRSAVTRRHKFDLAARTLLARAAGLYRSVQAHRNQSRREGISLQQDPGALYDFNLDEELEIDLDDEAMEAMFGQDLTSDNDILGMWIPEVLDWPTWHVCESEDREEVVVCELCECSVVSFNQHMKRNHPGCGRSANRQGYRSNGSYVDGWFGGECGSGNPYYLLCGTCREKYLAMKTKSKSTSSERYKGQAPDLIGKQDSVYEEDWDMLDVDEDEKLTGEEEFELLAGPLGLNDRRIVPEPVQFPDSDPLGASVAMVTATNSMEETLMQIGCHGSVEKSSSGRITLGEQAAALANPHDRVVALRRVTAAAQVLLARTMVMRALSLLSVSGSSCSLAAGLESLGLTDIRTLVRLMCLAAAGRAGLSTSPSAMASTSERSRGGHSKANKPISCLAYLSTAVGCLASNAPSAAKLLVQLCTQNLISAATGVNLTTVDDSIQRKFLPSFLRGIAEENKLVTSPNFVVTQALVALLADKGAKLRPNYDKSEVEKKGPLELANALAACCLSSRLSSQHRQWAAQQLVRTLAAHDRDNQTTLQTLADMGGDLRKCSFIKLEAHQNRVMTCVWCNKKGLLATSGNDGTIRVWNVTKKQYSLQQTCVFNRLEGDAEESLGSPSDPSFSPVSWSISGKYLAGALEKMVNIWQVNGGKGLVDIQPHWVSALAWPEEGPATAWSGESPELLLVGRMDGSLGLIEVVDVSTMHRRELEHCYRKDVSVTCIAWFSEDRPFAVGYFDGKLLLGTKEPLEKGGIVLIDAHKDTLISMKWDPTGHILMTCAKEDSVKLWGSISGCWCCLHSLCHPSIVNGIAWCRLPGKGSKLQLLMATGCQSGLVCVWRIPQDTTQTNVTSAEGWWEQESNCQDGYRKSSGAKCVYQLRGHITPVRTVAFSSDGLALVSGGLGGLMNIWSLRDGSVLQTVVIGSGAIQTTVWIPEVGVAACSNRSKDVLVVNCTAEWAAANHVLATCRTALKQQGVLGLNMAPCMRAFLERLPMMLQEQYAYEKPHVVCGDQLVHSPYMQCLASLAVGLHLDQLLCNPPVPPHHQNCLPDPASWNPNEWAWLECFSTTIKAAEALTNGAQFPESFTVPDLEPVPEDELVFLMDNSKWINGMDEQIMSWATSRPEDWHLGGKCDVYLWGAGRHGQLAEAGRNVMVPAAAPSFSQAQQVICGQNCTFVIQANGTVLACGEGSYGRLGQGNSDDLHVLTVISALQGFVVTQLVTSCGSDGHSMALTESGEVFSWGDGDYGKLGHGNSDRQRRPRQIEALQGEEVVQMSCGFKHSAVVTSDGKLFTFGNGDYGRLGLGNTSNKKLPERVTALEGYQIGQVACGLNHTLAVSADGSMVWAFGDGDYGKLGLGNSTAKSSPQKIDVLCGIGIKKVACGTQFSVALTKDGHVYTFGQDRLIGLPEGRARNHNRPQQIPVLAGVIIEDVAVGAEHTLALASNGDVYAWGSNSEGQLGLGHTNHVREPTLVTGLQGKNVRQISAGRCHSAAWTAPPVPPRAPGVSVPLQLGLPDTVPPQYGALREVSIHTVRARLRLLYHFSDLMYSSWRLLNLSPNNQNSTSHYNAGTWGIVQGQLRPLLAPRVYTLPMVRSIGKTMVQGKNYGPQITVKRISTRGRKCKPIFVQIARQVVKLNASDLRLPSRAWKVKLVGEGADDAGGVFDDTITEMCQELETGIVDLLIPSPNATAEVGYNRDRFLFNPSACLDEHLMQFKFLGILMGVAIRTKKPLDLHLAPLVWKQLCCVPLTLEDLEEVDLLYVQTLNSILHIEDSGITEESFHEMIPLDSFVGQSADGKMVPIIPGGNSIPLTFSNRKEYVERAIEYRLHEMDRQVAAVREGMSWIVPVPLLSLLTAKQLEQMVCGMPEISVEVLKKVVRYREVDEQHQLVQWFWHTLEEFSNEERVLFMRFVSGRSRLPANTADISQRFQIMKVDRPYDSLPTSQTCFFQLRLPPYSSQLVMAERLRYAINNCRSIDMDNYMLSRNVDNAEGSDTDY

Substance	melting temperature (HeLa Kyoto [1]; cell cycle stage: G1/S) [°C]	melting temperature (HeLa Kyoto [1]; cell cycle stage: mitosis) [°C]	solubility in G1/S (log2) (HeLa Kyoto [2])	solubility change mitosis (log2) (HeLa Kyoto [3])	thermal stability score (HeLa Kyoto [4]; [5])	thermal stability score (HeLa Kyoto [4]; cell cycle stage: mitosis)
MDDTLFQLKFTAKQLEKLAKKAEKDSKAEQAKVKKALLQKNVECARVYAENAIRKKNEGVNWLRMASRVDAVASKVQTAVTMKGVTKNMAQVTKALDKALSTMDLQKVSSVMDRFEQQVQNLDVHTSVMEDSMSSATTLTTPQEQVDSLIMQIAEENGLEVLDQLSQLPEGASAVGESSVRSQEDQLSRRLAALRN [CHMP1A]	54.4	53.9	0.509	0.313	-0.982	-1.61
MWLQQRLKGLPGLLSSSWARRLLCLLGLLLLLLWFGGSGARRAAGGLHLLPWSRGEPGAAEPSACLEAATRAWRGLRERGEVVPLGPGVPALVANGFLALDVAANRLWVTPGEREPAVAPDFVPFVQLRPLSALAEAGEAVLLLREGLLRRVRCLQLGSPGPGPVAAGPGPASVSGLAAGSGRDCVLLQEDFLAHRGRPHVYLQRIQLNNPTERVAALQTVGPTAGPAPKAFTSTLEKVGDHQFLLYSGRSPPTPTGLVHLVVVAAKKLVNRLQVAPKTQLDETVLWVVHVSGPINPQVLKSKAAKELKALQDLARKEMLELLDMPAAELLQDHQLLWAQLFSPGVEMKKITDTHTPSGLTVNLTLYYMLSCSPAPLLSPSLSHRERDQMESTLNYEDHCFSGHATMHAENLWPGRLSSVQQILQLSDLWRLTLQKRGCKGLVKVGAPGILQGMVLSFGGLQFTENHLQFQADPDVLHNSYALHGIRYKNDHINLAVLADAEGKPYLHVSVESRGQPVKIYACKAGCLDEPVELTSAPTGHTFSVMVTQPITPLLYISTDLTHLQDLRHTLHLKAILAHDEHMAQQDPGLPFLFWFSVASLITLFHLFLFKLIYNEYCGPGAKPLFRSKEDPSV [KIAA2013]	56.9	56.1	-0.156	-0.126	-3.23	-4.42
MSVEAYGPSSQTLTFLDTEEAELLGADTQGSEFEFTDFTLPSQTQTPPGGPGGPGGGGAGGPGGAGAGAAAGQLDAQVGPEGILQNGAVDDSVAKTSQLLAELNFEEDEEDTYYTKDLPIHACSYCGIHDPACVVYCNTSKKWFCNGRGNTSGSHIVNHLVRAKCKEVTLHKDGPLGETVLECYNCGCRNVFLLGFIPAKADSVVVLLCRQPCASQSSLKDINWDSSQWQPLIQDRCFLSWLVKIPSEQEQLRARQITAQQINKLEELWKENPSATLEDLEKPGVDEEPQHVLLRYEDAYQYQNIFGPLVKLEADYDKKLKESQTQDNITVRWDLGLNKKRIAYFTLPKTDSGNEDLVIIWLRDMRLMQGDEICLRYKGDLAPLWKGIGHVIKVPDNYGDEIAIELRSSVGAPVEVTHNFQVDFVWKSTSFDRMQSALKTFAVDETSVSGYIYHKLLGHEVEDVIIKCQLPKRFTAQGLPDLNHSQVYAVKTVLQRPLSLIQGPPGTGKTVTSATIVYHLARQGNGPVLVCAPSNIAVDQLTEKIHQTGLKVVRLCAKSREAIDSPVSFLALHNQIRNMDSMPELQKLQQLKDETGELSSADEKRYRALKRTAERELLMNADVICCTCVGAGDPRLAKMQFRSILIDESTQATEPECMVPVVLGAKQLILVGDHCQLGPVVMCKKAAKAGLSQSLFERLVVLGIRPIRLQVQYRMHPALSAFPSNIFYEGSLQNGVTAADRVKKGFDFQWPQPDKPMFFYVTQGQEEIASSGTSYLNRTEAANVEKITTKLLKAGAKPDQIGIITPYEGQRSYLVQYMQFSGSLHTKLYQEVEIASVDAFQGREKDFIILSCVRANEHQGIGFLNDPRRLNVALTRARYGVIIVGNPKALSKQPLWNHLLNYYKEQKVLVEGPLNNLRESLMQFSKPRKLVNTINPGARFMTTAMYDAREAIIPGSVYDRSSQGRPSSMYFQTHDQIGMISAGPSHVAAMNIPIPFNLVMPPMPPPGYFGQANGPAAGRGTPKGKTGRGGRQKNRFGLPGPSQTNLPNSQASQDVASQPFSQGALTQGYISMSQPSQMSQPGLSQPELSQDSYLGDEFKSQIDVALSQDSTYQGERAYQHGGVTGLSQY [UPF1]	54.3	52.3	0.0497	-0.0177	-3.14	-8.04
MQRLLFPPLRALKGRQYLPLLAPRAAPRAQCDCIRRPLRPGQYSTISEVALQSGRGTVSLPSKAAERVVGRWLLVCSGTVAGAVILGGVTRLTESGLSMVDWHLIKEMKPPTSQEEWEAEFQRYQQFPEFKILNHDMTLTEFKFIWYMEYSHRMWGRLVGLVYILPAAYFWRKGWLSRGMKGRVLALCGLVCFQGLLGWYMVKSGLEEKSDSHDIPRVSQYRLAAHLGSALVLYCASLWTSLSLLLPPHKLPETHQLLQLRRFAHGTAGLVFLTALSGAFVAGLDAGLVYNSFPKMGESWIPEDLFTFSPILRNVFENPTMVQFDHRILGITSVTAITVLYFLSRRIPLPRRTKMAAVTLLALAYTQVGLGISTLLMYVPTPLAATHQSGSLALLTGALWLMNELRRVPK [COX15]	56.5	57.9	-0.208	-0.0819	-2.54	-1.54
MAETEALSKLREDFRMQNKSVFILGASGETGRVLLKEILEQGLFSKVTLIGRRKLTFDEEAYKNVNQEVVDFEKLDDYASAFQGHDVGFCCLGTTRGKAGAEGFVRVDRDYVLKSAELAKAGGCKHFNLLSSKGADKSSNFLYLQVKGEVEAKVEELKFDRYSVFRPGVLLCDRQESRPGEWLVRKFFGSLPDSWASGHSVPVVTVVRAMLNNVVRPRDKQMELLENKAIHDLGKAHGSLKP [HTATIP2]	50.8	50.2	0.148	-0.095	2.61	4.75
HERC1	51.7	51.3	-0.169	-0.126	-0.377	-0.404
MGLLRIMMPPKLQLLAVVAFAVAMLFLENQIQKLEESRSKLERAIARHEVREIEQRHTMDGPRQDATLDEEEDMVIIYNRVPKTASTSFTNIAYDLCAKNKYHVLHINTTKNNPVMSLQDQVRFVKNITSWKEMKPGFYHGHVSYLDFAKFGVKKKPIYINVIRDPIERLVSYYYFLRFGDDYRPGLRRRKQGDKKTFDECVAEGGSDCAPEKLWLQIPFFCGHSSECWNVGSRWAMDQAKYNLINEYFLVGVTEELEDFIMLLEAALPRFFRGATELYRTGKKSHLRKTTEKKLPTKQTIAKLQQSDIWKMENEFYEFALEQFQFIRAHAVREKDGDLYILAQNFFYEKIYPKSN [HS2ST1]	55.1	55.5	0.0386	0.0318	-0.242	0.814
MQPASAKWYDRRDYVFIEFCVEDSKDVNVNFEKSKLTFSCLGGSDNFKHLNEIDLFHCIDPNDSKHKRTDRSILCCLRKGESGQSWPRLTKERAKLNWLSVDFNNWKDWEDDSDEDMSNFDRFSEMMNNMGGDEDVDLPEVDGADDDSQDSDDEKMPDLE [PTGES3]	48.7	49.9	0.0757	-0.00282	3.93	3.45
MSDSGEQNYGERESRSASRSGSAHGSGKSARHTPARSRSKEDSRRSRSKSRSRSESRSRSRRSSRRHYTRSRSRSRSHRRSRSRSYSRDYRRRHSHSHSPMSTRRRHVGNRANPDPNCCLGVFGLSLYTTERDLREVFSKYGPIADVSIVYDQQSRRSRGFAFVYFENVDDAKEAKERANGMELDGRRIRVDFSITKRPHTPTPGIYMGRPTYGSSRRRDYYDRGYDRGYDDRDYYSRSYRGGGGGGGGWRAAQDRDQIYRRRSPSPYYSRGGYRSRSRSRSYSPRRY [TRA2B]	49.9	49.8	-1.17	0.613	-1.69	-4.47
DNAJA1	51.8	52.1	-0.016	0.000386	-1.37	-1.92
MHSEAEESKEVATDVFNSKNLAVQAQKKILGKMVSKSIATTLIDDTSSEVLDELYRVTREYTQNKKEAEKIIKNLIKTVIKLAILYRNNQFNQDELALMEKFKKKVHQLAMTVVSFHQVDYTFDRNVLSRLLNECREMLHQIIQRHLTAKSHGRVNNVFDHFSDCEFLAALYNPFGNFKPHLQKLCDGINKMLDEENI [TNFAIP8]	51.9	51.7	0.339	-0.272	0.429	-0.108
MELSAEYLREKLQRDLEAEHVEVEDTTLNRCSCSFRVLVVSAKFEGKPLLQRHRLVNACLAEELPHIHAFEQKTLTPDQWARERQK [BOLA2]	50.9	51.9	-0.0477	0.186	0.374	0.288
MVEEVQKHSVHTLVFRSLKRTHDMFVADNGKPVPLDEESHKRKMAIKLRNEYGPVLHMPTSKENLKEKGPQNATDSYVHKQYPANQGQEVEYFVAGTHPYPPGPGVALTADTKIQRMPSESAAQSLAVALPLQTKADANRTAPSGSEYRHPGASDRPQPTAMNSIVMETGNTKNSALMAKKAPTMPKPQWHPPWKLYRVISGHLGWVRCIAVEPGNQWFVTGSADRTIKIWDLASGKLKLSLTGHISTVRGVIVSTRSPYLFSCGEDKQVKCWDLEYNKVIRHYHGHLSAVYGLDLHPTIDVLVTCSRDSTARIWDVRTKASVHTLSGHTNAVATVRCQAAEPQIITGSHDTTIRLWDLVAGKTRVTLTNHKKSVRAVVLHPRHYTFASGSPDNIKQWKFPDGSFIQNLSGHNAIINTLTVNSDGVLVSGADNGTMHLWDWRTGYNFQRVHAAVQPGSLDSESGIFACAFDQSESRLLTAEADKTIKVYREDDTATEETHPVSWKPEIIKRKRF [PLRG1]	50.6	50.6	-0.776	0.247	-0.0826	-5.45
METLSFPRYNVAEIVIHIRNKILTGADGKNLTKNDLYPNPKPEVLHMIYMRALQIVYGIRLEHFYMMPVNSEVMYPHLMEGFLPFSNLVTHLDSFLPICRVNDFETADILCPKAKRTSRFLSGIINFIHFREACRETYMEFLWQYKSSADKMQQLNAAHQEALMKLERLDSVPVEEQEEFKQLSDGIQELQQSLNQDFHQKTIVLQEGNSQKKSNISEKTKRLNELKLSVVSLKEIQESLKTKIVDSPEKLKNYKEKMKDTVQKLKNARQEVVEKYEIYGDSVDCLPSCQLEVQLYQKKIQDLSDNREKLASILKESLNLEDQIESDESELKKLKTEENSFKRLMIVKKEKLATAQFKINKKHEDVKQYKRTVIEDCNKVQEKRGAVYERVTTINQEIQKIKLGIQQLKDAAEREKLKSQEIFLNLKTALEKYHDGIEKAAEDSYAKIDEKTAELKRKMFKMST [NUF2]	48.2	48.1	-0.0908	-0.0858	0.86	1.16
FLNB	51.8	51.3	-0.0724	-0.0508	-0.118	0.998
MANRTVKDAHSIHGTNPQYLVEKIIRTRIYESKYWKEECFGLTAELVVDKAMELRFVGGVYGGNIKPTPFLCLTLKMLQIQPEKDIIVEFIKNEDFKYVRMLGALYMRLTGTAIDCYKYLEPLYNDYRKIKSQNRNGEFELMHVDEFIDELLHSERVCDIILPRLQKRYVLEEAEQLEPRVSALEEDMDDVESSEEEEEEDEKLERVPSPDHRRRSYRDLDKPRRSPTLRYRRSRSRSPRRRSRSPKRRSPSPRRERHRSKSPRRHRSRSRDRRHRSRSKSPGHHRSHRHRSHSKSPERSKKSHKKSRRGNE [PRPF38A]	49	48.6	-1.32	0.372	-0.0926	1.13
